Experimental data from the supplement of paper PMC9112550, “Optimization of the antimicrobial peptide Bac7 by deep mutational scanning” (BMC Biology, 2022).

Tested on: Escherichia coli TOP10
Assay: shrunken log2 fold change of peptide-encoding DNA abundance (4.5 h post-induction vs induction); higher = less antimicrobial activity (less host growth inhibition)
Details: time post-induction: 4.5 h; library: site-saturation at positions 5, 18, 19, 20
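Note: peptides expressed intracellularly from a pBAD plasmid library in pooled LB shake-flask culture, induced with 0.3% L-arabinose, DNA abundance read by NGS, three biological replicates, DESeq2 with apeglm shrinkage.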

In order of falling “shrunken log2 fold change” value:
1. RRIRMRPPRLPRPRPRPCAEPRP  2.31
2. RRIRMRPPRLPRPRPRPRNAPRP  2.06
3. RRIRGRPPRLPRPRPRPEAFPRP  1.86
4. RRIRVRPPRLPRPRPRPAVLPRP  1.75
5. RRIRGRPPRLPRPRPRPLRGPRP  1.29
6. RRIRARPPRLPRPRPRPAAPPRP  0.99
7. RRIRARPPRLPRPRPRPTMRPRP  0.976
8. RRIRMRPPRLPRPRPRPAEAPRP  0.917
9. RRIRGRPPRLPRPRPRPKGGPRP  0.901
10. RRIRARPPRLPRPRPRPEQQPRP  0.785
11. RRIRRRPPRLPRPRPRPPTPPRP  0.769
12. RRIRRRPPRLPRPRPRPPCQPRP  0.767
13. RRIRARPPRLPRPRPRPKQDPRP  0.734
14. RRIRARPPRLPRPRPRPEWPPRP  0.591
15. RRIRLRPPRLPRPRPRPRRGPRP  0.543
16. RRIRRRPPRLPRPRPRPIVCPRP  0.539
17. RRIRSRPPRLPRPRPRPAPMPRP  0.492
18. RRIRMRPPRLPRPRPRPTVLPRP  0.477
19. RRIRGRPPRLPRPRPRPTGNPRP  0.452
20. RRIRRRPPRLPRPRPRPLALPRP  0.396
21. RRIRRRPPRLPRPRPRPPMQPRP  0.385
22. RRIRSRPPRLPRPRPRPELRPRP  0.382
23. RRIRGRPPRLPRPRPRPWPRPRP  0.37
24. RRIRCRPPRLPRPRPRPIATPRP  0.366
25. RRIRVRPPRLPRPRPRPEQSPRP  0.362
26. RRIRQRPPRLPRPRPRPAWGPRP  0.34
27. RRIRNRPPRLPRPRPRPGEAPRP  0.33
28. RRIRERPPRLPRPRPRPTREPRP  0.329
29. RRIRRRPPRLPRPRPRPYFPPRP  0.31
30. RRIRMRPPRLPRPRPRPQVFPRP  0.281
31. RRIRIRPPRLPRPRPRPANWPRP  0.236
32. RRIRARPPRLPRPRPRPVGQPRP  0.225
33. RRIRDRPPRLPRPRPRPVETPRP  0.222
34. RRIRRRPPRLPRPRPRPCWLPRP  0.202
35. RRIRRRPPRLPRPRPRPNCSPRP  0.198
36. RRIRSRPPRLPRPRPRPKDLPRP  0.184
37. RRIRVRPPRLPRPRPRPCGRPRP  0.168
38. RRIRWRPPRLPRPRPRPVYHPRP  0.161
39. RRIRSRPPRLPRPRPRPGVMPRP  0.161
40. RRIRWRPPRLPRPRPRPVRQPRP  0.161
41. RRIRKRPPRLPRPRPRPQSGPRP  0.149
42. RRIRLRPPRLPRPRPRPCRAPRP  0.146
43. RRIRKRPPRLPRPRPRPNPKPRP  0.143
44. RRIRERPPRLPRPRPRPGWSPRP  0.135
45. RRIRCRPPRLPRPRPRPQQKPRP  0.13
46. RRIRDRPPRLPRPRPRPLDCPRP  0.118
47. RRIRWRPPRLPRPRPRPLIKPRP  0.114
48. RRIRPRPPRLPRPRPRPWVRPRP  0.113
49. RRIRRRPPRLPRPRPRPTNQPRP  0.111
50. RRIRHRPPRLPRPRPRPKRAPRP  0.0906
51. RRIRTRPPRLPRPRPRPMKIPRP  0.0884
52. RRIRVRPPRLPRPRPRPGTCPRP  0.0803
53. RRIRCRPPRLPRPRPRPEKKPRP  0.0741
54. RRIRARPPRLPRPRPRPMSGPRP  0.0632
55. RRIRHRPPRLPRPRPRPTFDPRP  0.0575
56. RRIRVRPPRLPRPRPRPTFPPRP  0.0553
57. RRIRFRPPRLPRPRPRPANGPRP  0.0551
58. RRIRWRPPRLPRPRPRPWVWPRP  0.0506
59. RRIRLRPPRLPRPRPRPMSCPRP  0.0448
60. RRIRPRPPRLPRPRPRPWWHPRP  0.0413
61. RRIRPRPPRLPRPRPRPSPPPRP  0.0408
62. RRIRMRPPRLPRPRPRPYMRPRP  0.0391
63. RRIRNRPPRLPRPRPRPLQFPRP  0.0375
64. RRIRHRPPRLPRPRPRPQGRPRP  0.027
65. RRIRFRPPRLPRPRPRPWRHPRP  0.0222
66. RRIRKRPPRLPRPRPRPLFHPRP  0.0214
67. RRIRNRPPRLPRPRPRPENWPRP  0.0185
68. RRIRGRPPRLPRPRPRPWVNPRP  0.0175
69. RRIRGRPPRLPRPRPRPCIHPRP  0.00637
70. RRIRKRPPRLPRPRPRPDWMPRP  0.00417
71. RRIRCRPPRLPRPRPRPKKWPRP  0.00275
72. RRIRARPPRLPRPRPRPCHIPRP  0.00153
73. RRIRTRPPRLPRPRPRPMHGPRP  -0.0017
74. RRIRDRPPRLPRPRPRPQIVPRP  -0.00245
75. RRIRRRPPRLPRPRPRPEKCPRP  -0.00259
76. RRIRYRPPRLPRPRPRPMVSPRP  -0.00277
77. RRIRHRPPRLPRPRPRPNPEPRP  -0.00699
78. RRIRPRPPRLPRPRPRPAFYPRP  -0.00911
79. RRIRMRPPRLPRPRPRPQRFPRP  -0.0093
80. RRIRIRPPRLPRPRPRPIQGPRP  -0.0119
81. RRIRNRPPRLPRPRPRPTAWPRP  -0.0125
82. RRIRYRPPRLPRPRPRPMTYPRP  -0.0131
83. RRIRFRPPRLPRPRPRPWTYPRP  -0.0132
84. RRIRCRPPRLPRPRPRPIEKPRP  -0.0167
85. RRIRHRPPRLPRPRPRPGQSPRP  -0.0176
86. RRIRERPPRLPRPRPRPWDNPRP  -0.021
87. RRIRQRPPRLPRPRPRPFTYPRP  -0.0211
88. RRIRDRPPRLPRPRPRPWLTPRP  -0.0223
89. RRIRWRPPRLPRPRPRPYGPPRP  -0.0264
90. RRIRMRPPRLPRPRPRPNQGPRP  -0.0312
91. RRIRYRPPRLPRPRPRPDCHPRP  -0.0362
92. RRIRDRPPRLPRPRPRPSENPRP  -0.0386
93. RRIRNRPPRLPRPRPRPDIDPRP  -0.0391
94. RRIRKRPPRLPRPRPRPCIPPRP  -0.0433
95. RRIRSRPPRLPRPRPRPYQAPRP  -0.0507
96. RRIRWRPPRLPRPRPRPMWYPRP  -0.0539
97. RRIRLRPPRLPRPRPRPMWTPRP  -0.0582
98. RRIRVRPPRLPRPRPRPTPYPRP  -0.0655
99. RRIRCRPPRLPRPRPRPPQEPRP  -0.069
100. RRIRVRPPRLPRPRPRPIRNPRP  -0.0718
101. RRIRFRPPRLPRPRPRPCFEPRP  -0.0728
102. RRIRSRPPRLPRPRPRPQCSPRP  -0.0935
103. RRIRFRPPRLPRPRPRPDDMPRP  -0.0994
104. RRIRKRPPRLPRPRPRPNISPRP  -0.102
105. RRIRRRPPRLPRPRPRPMETPRP  -0.12
106. RRIRKRPPRLPRPRPRPLCLPRP  -0.126
107. RRIRARPPRLPRPRPRPMARPRP  -0.132
108. RRIRNRPPRLPRPRPRPPSEPRP  -0.147
109. RRIRARPPRLPRPRPRPWNDPRP  -0.158
110. RRIRLRPPRLPRPRPRPFTEPRP  -0.163
111. RRIRHRPPRLPRPRPRPACKPRP  -0.164
112. RRIRLRPPRLPRPRPRPAECPRP  -0.167
113. RRIRYRPPRLPRPRPRPQTPPRP  -0.203
114. RRIRPRPPRLPRPRPRPVVTPRP  -0.207
115. RRIRVRPPRLPRPRPRPLAFPRP  -0.221
116. RRIRTRPPRLPRPRPRPGNGPRP  -0.222
117. RRIRVRPPRLPRPRPRPQMSPRP  -0.233
118. RRIRARPPRLPRPRPRPYHSPRP  -0.237
119. RRIRVRPPRLPRPRPRPCDLPRP  -0.238
120. RRIRFRPPRLPRPRPRPSGNPRP  -0.24
121. RRIRLRPPRLPRPRPRPYATPRP  -0.246
122. RRIRSRPPRLPRPRPRPWHQPRP  -0.25
123. RRIRGRPPRLPRPRPRPIHFPRP  -0.252
124. RRIRCRPPRLPRPRPRPQMGPRP  -0.273
125. RRIRDRPPRLPRPRPRPYHFPRP  -0.277
126. RRIRARPPRLPRPRPRPKYKPRP  -0.31
127. RRIRPRPPRLPRPRPRPMCMPRP  -0.32
128. RRIRPRPPRLPRPRPRPNMHPRP  -0.329
129. RRIRLRPPRLPRPRPRPNHDPRP  -0.333
130. RRIRTRPPRLPRPRPRPGMSPRP  -0.352
131. RRIRCRPPRLPRPRPRPSTGPRP  -0.354
132. RRIRFRPPRLPRPRPRPMWTPRP  -0.37
133. RRIRQRPPRLPRPRPRPLHMPRP  -0.384
134. RRIRSRPPRLPRPRPRPHLEPRP  -0.395
135. RRIRLRPPRLPRPRPRPHTHPRP  -0.441
136. RRIRLRPPRLPRPRPRPQIMPRP  -0.444
137. RRIRFRPPRLPRPRPRPCYPPRP  -0.451
138. RRIRCRPPRLPRPRPRPDRKPRP  -0.458
139. RRIRIRPPRLPRPRPRPSQRPRP  -0.466
140. RRIRYRPPRLPRPRPRPYWDPRP  -0.483
141. RRIRFRPPRLPRPRPRPCCMPRP  -0.579
142. RRIRVRPPRLPRPRPRPSCVPRP  -0.583
143. RRIRLRPPRLPRPRPRPCRTPRP  -0.66
144. RRIRLRPPRLPRPRPRPSFTPRP  -0.672
145. RRIRNRPPRLPRPRPRPFCQPRP  -0.677
146. RRIRQRPPRLPRPRPRPYISPRP  -0.716
147. RRIRSRPPRLPRPRPRPYLHPRP  -0.757
148. RRIRPRPPRLPRPRPRPHMIPRP  -0.98
149. RRIRHRPPRLPRPRPRPNRNPRP  -1.01
150. RRIRHRPPRLPRPRPRPYFIPRP  -1.14
